Experimental data reported in patent US10829561B2, “Antibodies targeting quiescin sulfhydryl oxidase (QSOX1) and uses of same” (Yeda Research and Development Co. Ltd., priority 2015, dated 2020).
“Also recorded” adds a separate entry of the source.

Legend:
[1] = tested on: 4T1 murine mammary carcinoma; experiment: Murine 4T1 breast cancer model, tumor volume; format: in vivo, BALB/c female mice; settings: 8 mg/kg doxorubicin once a week, intraperitoneal, vs control mice
Procedure: 4T1 mCherry cells were suspended in Hanks' Balanced Salt Solution at a concentration of 2.5×10^6 cells/ml and mixed 1:1 with Cultrex® Basement Membrane Extract. 250,000 cells were injected into the mammary fat pad of 45 BALB/c female mice. Animals were divided into 5 groups containing 9 animals each (as depicted in Table 1B, below). Treatments were administered by intraperitoneal injection, beginning 3 days after cell injection. Tumor dimensions (x,y,z) were measured with a caliper twice a week. Tumor volumes were calculated according to: […]. Animals were weighed once a week. Twenty days post cell injection all animals were sacrificed by CO2 asphyxiation. Tumors and lungs were removed into 4% formaldehyde solution and prepared for histology.
The ability of an antibody inhibiting MmQSOX1 to control tumor growth and metastasis was evaluated in vivo in the 4T1 murine mammary carcinoma breast cancer model previously described [Pulaski and Ostrand-Rosenberg (2001) Mouse 4T1 breast tumor model. Curr. Protoc. Immunol. Chapter 20, Unit 20.2.]. Mice were injected with 4T1 cells together with matrigel, which aided in formation of a localized tumor, and then divided into five groups (as described in Table 1B, above). […] Tumor volumes were measured twice a week. Animals were sacrificed after 20 days, and their tumors and lungs were removed for evaluation.

[2] = tested on: mouse embryonic fibroblasts (MEFs); experiment: Epithelial cell adhesion to mouse fibroblast monolayer; format: cell-based; settings: 250 nM or 1 μM antibody; HEK 293T adhering cells
Procedure: (§1) The assays were conducted essentially as previously described [Ilani T. et al. (2013), supra]. Instead of human fibroblasts, mouse fibroblasts were grown for three days in the presence of various antibodies. HEK 293T cells were used as adhering cells.
(§2) QSOX1 and laminin are secreted from quiescent fibroblasts into the ECM, where QSOX1 promotes laminin incorporation, and consequently the adherence of epithelial cells to the fibroblast monolayer. Thus, intact laminin networks in the ECM and cell adherence indicate functional QSOX1 activity in the ECM [Ilani T. et al. (2013), supra]. Inventors first verified that MmQSOX1 is secreted from confluent mouse embryonic fibroblasts (MEFs) (FIG. 4A). Next, extracellular laminin secreted by MEFs grown for three days in the presence of MAb492.1, MAb316.1, or MAb492gen was stained. […] A quantitative assay of epithelial cell adhesion to MEF monolayers was performed next. Fluorescently labeled epithelial cells were added to MEFs grown in the absence or presence of the antibodies, and adherent cells were quantified.

[3] = tested on: mouse embryonic fibroblasts (MEFs); experiment: Laminin immunostaining in mouse fibroblast cultures; format: cell-based; settings: MEFs grown for three days in the presence of antibody
Procedure: as §1, §2

[4] = target: T1, MmQSOX1 (Mus musculus, UniProt Q8BND5); experiment: Oxygen consumption assay of QSOX1 activity and inhibition (DTT substrate); format: biochemical; settings: 10:1 molar ratio of antibody to enzyme
T1 construct: Recombinant MmQSOX1 is truncated at the carboxy-terminus and so migrates faster than endogenous secreted MmQSOX1; made in house
T1 sequence (Q8BND5 36-550 limits assumed): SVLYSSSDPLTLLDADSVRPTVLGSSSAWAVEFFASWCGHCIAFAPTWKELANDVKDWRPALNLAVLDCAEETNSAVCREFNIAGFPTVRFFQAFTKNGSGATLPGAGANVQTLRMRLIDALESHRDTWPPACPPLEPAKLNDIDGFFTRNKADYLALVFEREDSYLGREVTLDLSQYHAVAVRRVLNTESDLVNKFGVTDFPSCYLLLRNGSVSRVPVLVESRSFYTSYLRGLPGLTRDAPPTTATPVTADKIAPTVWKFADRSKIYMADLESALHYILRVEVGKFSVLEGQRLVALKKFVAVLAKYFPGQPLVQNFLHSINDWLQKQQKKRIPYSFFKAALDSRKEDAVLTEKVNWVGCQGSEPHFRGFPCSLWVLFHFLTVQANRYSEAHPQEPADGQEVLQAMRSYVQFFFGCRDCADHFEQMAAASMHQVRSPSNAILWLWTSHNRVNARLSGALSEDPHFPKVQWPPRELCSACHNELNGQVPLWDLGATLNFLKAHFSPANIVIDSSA
Procedure: Twenty top binders were tested for MmQSOX1 inhibition in the in vitro oxygen consumption assay, in which hybridoma supernatants were mixed with 100 nM MmQSOX1 and 200 μm DTT.

[5] = target: T2, HsQSOX1 (Homo sapiens, UniProt O00391); settings: Grossman I. et al. (2013); cited from earlier work
T2 construct: made in house
T2 sequence (O00391 33-546 limits assumed): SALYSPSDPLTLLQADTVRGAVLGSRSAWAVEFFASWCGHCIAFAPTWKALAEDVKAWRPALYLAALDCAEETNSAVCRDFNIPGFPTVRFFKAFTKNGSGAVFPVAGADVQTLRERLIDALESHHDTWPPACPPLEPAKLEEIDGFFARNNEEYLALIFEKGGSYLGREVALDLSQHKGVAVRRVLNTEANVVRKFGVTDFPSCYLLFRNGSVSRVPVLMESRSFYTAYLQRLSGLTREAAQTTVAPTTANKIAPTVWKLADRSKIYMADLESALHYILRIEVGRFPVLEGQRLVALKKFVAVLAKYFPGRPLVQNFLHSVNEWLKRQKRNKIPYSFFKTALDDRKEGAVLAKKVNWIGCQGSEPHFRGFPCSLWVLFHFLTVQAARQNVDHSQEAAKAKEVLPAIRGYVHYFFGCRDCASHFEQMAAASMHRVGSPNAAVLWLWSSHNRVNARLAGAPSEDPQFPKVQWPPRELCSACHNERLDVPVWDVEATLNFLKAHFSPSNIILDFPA

[6] = target: T3, MmQSOX1 TLPG(138-141)VFPV mutant (Mus musculus, UniProt Q8BND5, G141V/L139F/T138V); experiment: Oxygen consumption assay, MmQSOX1 mutant mimicking HsQSOX1; format: biochemical; settings: 250 nM MAb492.1, 200 μM DTT
T3 construct: made in house
T3 sequence (Q8BND5 36-550 T138V/L139F/G141V limits assumed): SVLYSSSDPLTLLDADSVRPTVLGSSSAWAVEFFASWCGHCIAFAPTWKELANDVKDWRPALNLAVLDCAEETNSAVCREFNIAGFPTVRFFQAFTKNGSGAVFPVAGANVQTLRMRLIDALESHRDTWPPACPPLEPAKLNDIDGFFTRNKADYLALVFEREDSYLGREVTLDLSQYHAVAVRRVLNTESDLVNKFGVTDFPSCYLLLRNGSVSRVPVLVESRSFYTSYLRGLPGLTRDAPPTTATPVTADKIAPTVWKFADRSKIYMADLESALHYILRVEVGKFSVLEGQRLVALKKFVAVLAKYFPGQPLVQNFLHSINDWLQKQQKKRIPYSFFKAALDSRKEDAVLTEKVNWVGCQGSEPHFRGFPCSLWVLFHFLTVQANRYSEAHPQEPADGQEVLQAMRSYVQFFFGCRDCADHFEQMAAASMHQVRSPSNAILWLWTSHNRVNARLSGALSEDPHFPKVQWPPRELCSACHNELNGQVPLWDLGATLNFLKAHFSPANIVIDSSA
Procedure: (§3) Reactions were initiated by DTT injection, and oxygen consumption rates were obtained from initial slopes. […] Measurements were performed 3 times, and resulting rates were averaged. For each mutant, the rate in the presence of inhibitory antibody was divided by the rate in the absence of antibody to get percent activity.
(§4) The first mutant, A116P, was inhibited by about 60% (FIG. 2D), and the second mutant, TLPG(138-141)VFPV, by about 50%.

[7] = target: T4, MmQSOX1 A116P mutant (Mus musculus, UniProt Q8BND5); experiment: as above; format: biochemical; settings: 250 nM MAb492.1, 200 μM DTT
T4 construct: made in house
T4 sequence (Q8BND5 36-550 A119P limits assumed): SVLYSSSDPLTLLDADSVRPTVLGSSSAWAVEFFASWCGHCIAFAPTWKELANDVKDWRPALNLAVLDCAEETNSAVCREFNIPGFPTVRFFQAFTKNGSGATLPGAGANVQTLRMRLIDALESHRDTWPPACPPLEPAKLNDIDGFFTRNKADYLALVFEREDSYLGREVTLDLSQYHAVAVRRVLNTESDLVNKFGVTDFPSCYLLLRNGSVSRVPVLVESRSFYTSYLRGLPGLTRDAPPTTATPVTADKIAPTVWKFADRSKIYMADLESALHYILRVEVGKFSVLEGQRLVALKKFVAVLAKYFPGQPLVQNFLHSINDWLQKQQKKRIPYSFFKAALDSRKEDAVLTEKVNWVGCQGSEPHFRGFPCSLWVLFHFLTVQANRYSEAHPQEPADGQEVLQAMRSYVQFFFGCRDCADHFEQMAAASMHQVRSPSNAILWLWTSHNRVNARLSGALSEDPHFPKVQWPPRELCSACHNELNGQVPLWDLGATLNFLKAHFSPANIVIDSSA
Procedure: as §3, §4

[8] = target: T5, CpQSOX1 (Cavia porcellus, UniProt O08841); experiment: Oxygen consumption assay of QSOX1 activity and inhibition (DTT substrate); format: biochemical; settings: even at 1 μM antibody, 10:1 molar ratio of antibody to enzyme
T5 construct: The CpQSOX1 protein spans residues 34-547 of Cavia porcellus QSOX1; His-tag with thrombin site (inferred from the pET-15b vector, NdeI/BamHI cloning); made in house; host or cells: E. coli
T5 sequence (O08841 34-547): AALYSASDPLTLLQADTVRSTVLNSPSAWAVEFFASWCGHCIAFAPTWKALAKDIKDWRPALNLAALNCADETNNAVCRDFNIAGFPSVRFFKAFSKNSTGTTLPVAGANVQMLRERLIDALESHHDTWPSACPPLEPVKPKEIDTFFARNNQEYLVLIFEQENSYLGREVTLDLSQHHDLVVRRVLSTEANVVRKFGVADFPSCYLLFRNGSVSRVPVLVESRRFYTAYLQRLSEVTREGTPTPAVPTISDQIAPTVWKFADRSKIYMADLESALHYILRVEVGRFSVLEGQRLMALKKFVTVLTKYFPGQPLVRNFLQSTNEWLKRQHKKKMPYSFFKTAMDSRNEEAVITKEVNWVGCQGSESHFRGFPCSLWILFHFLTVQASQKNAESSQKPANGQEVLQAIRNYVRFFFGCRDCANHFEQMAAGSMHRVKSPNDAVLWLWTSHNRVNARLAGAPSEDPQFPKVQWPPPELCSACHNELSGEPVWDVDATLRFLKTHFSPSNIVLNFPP
Procedure: as §3
(§5) Three mammalian QSOX1 enzymes, from common experimental organisms and having 78-79% sequence identity with HsQSOX1, were chosen: Mus musculus QSOX1 (MmQSOX1), Rattus norvegicus QSOX1 (RnQSOX1), and Cavia porcellus (CpQSOX1). Enzyme activity was assessed in an oxygen consumption assay on the model substrate dithiothreitol (DTT).

[9] = target: T6, RnQSOX1 (Rattus norvegicus, UniProt Q6IUU3); experiment: as above; format: biochemical; settings: even at 1 μM antibody, 10:1 molar ratio of antibody to enzyme
T6 construct: made in house
T6 sequence (Q6IUU3 33-750): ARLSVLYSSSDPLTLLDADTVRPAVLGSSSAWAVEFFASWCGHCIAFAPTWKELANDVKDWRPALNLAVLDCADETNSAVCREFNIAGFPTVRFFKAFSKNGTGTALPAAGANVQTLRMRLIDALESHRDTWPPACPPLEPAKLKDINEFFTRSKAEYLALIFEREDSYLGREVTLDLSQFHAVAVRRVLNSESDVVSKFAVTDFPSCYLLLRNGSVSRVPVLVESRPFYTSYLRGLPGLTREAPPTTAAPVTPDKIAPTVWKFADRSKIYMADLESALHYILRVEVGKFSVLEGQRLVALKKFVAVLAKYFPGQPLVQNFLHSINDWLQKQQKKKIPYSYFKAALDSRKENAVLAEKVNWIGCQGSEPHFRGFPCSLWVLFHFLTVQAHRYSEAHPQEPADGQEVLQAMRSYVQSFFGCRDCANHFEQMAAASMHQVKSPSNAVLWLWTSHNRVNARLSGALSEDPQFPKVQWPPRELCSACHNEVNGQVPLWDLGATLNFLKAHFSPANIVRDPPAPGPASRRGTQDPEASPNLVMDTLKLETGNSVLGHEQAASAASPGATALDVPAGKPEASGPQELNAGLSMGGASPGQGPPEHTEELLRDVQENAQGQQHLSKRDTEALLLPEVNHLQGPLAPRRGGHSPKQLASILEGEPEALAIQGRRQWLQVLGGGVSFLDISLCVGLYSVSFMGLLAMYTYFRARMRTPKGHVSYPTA
Procedure: as §3, §5

Molecule	Tumor volume [1]	Epithelial cell adherence to MEF monolayer [2]	Laminin network in ECM [3]	Inhibition of MmQSOX1 at 1 μM antibody [4]	Concentration inhibiting HsQSOX1 activity in vitro and in cell culture [5]	Inhibition of MmQSOX1 TLPG(138-141)VFPV mutant [6]	Inhibition of MmQSOX1 A116P mutant [7]	Effect on CpQSOX1 activity [8]	Effect on RnQSOX1 activity [9]
COc1cccc2c1C(=O)c1c(O)c3c(c(O)c1C2=O)C[C@@](O)(C(=O)CO)C[C@@H]3O[C@H]1C[C@H](N)[C@H](O)[C@H](C)O1 [doxorubicin, reference compound]	smaller tumors than control mice								
MAb492.1: previously published inhibitory monoclonal antibody blocking the Trx CXXC redox-active site of human QSOX1 (antibody, V domains shown) VL: DVVMTQTHKFMSTSVGDRVSITCKASQDVSTAVAWYQQKSGQSPKLLIHSASYRYTGVPDRFTGSGSGTDFTFTISSVQAEDLAVYYCQQHYSIPLTFGAGTKLELK VH: QVQLKQSGPGLVAPSQSLSITCTVSGFSLTGYGVNWVRQSPGKGLEWLGMIWGDGRTDYKSALKSRLSITKDNSKSQVFLKMNSLQTDDTARYFCASDYYGSGSFAYWGQGTLVTVSA		did not affect	did not affect	no effect; also recorded: No inhibition at 1 μM	near-stoichiometric concentration	about 50%	about 60%	no effect	no effect
